Assay results from PMC9507969, “Visualizing maturation factor extraction from the nascent ribosome by the AAA-ATPase Drg1” (Nature Structural & Molecular Biology, 2022).
Residue numbers refer to the chain shown, from its start.

T1: Drg1EQ1 (E346Q), D1 Walker B variant, purified (S. cerevisiae, UniProt P32794 1-780, E346Q)
T1 construct: Drg1 (AFG2) of S. cerevisiae with the D1 Walker B exchange E346Q; source: overexpressed in yeast as GST fusion, purified on GSH-agarose, eluted by Prescission protease cleavage
T1 sequence: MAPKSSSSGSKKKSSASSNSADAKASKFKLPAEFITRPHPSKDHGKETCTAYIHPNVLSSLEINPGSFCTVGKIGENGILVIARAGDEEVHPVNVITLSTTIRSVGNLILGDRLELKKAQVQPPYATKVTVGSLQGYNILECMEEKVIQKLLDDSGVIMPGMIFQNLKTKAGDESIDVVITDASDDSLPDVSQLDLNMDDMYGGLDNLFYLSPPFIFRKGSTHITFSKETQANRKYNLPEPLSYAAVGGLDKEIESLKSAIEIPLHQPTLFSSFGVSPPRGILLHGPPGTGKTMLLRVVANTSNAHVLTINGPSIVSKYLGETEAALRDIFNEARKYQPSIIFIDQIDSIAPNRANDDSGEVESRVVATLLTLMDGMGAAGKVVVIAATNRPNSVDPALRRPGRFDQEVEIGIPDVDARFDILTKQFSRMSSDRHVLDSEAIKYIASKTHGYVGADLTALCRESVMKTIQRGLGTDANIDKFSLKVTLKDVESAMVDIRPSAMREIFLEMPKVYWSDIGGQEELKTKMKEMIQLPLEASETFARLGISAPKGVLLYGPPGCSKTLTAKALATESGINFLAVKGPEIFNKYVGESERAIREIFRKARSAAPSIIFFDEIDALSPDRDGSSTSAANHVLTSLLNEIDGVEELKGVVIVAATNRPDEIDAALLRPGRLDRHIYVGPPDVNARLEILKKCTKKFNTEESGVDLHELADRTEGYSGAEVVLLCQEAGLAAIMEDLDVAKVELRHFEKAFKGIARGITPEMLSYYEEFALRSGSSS

T2: Nsa2 on the pre-60S particle (S. cerevisiae (endogenous in the yeast …, UniProt P40078 1-261))
T2 construct: Nsa2 of S. cerevisiae; only His20 to Lys74 seen as density; source: endogenous, on pre-60S particles purified via Bud20-TAP from S. cerevisiae
T2 sequence (looked up): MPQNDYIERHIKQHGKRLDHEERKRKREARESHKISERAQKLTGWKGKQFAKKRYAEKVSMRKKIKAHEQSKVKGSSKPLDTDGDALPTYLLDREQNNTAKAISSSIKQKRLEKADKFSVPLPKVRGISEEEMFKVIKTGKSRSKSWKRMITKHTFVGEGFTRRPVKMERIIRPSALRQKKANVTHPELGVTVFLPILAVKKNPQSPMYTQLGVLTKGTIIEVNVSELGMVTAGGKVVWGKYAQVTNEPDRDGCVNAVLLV

T3: Nog1 on the pre-60S particle (S. cerevisiae (endogenous in the yeast …, UniProt Q02892 1-647))
T3 construct: Nog1 of S. cerevisiae; source: endogenous, on pre-60S particles purified from S. cerevisiae via Bud20-TAP (cryo-EM, blots) or Arx1-TAP (cross-linking)
T3 sequence (looked up): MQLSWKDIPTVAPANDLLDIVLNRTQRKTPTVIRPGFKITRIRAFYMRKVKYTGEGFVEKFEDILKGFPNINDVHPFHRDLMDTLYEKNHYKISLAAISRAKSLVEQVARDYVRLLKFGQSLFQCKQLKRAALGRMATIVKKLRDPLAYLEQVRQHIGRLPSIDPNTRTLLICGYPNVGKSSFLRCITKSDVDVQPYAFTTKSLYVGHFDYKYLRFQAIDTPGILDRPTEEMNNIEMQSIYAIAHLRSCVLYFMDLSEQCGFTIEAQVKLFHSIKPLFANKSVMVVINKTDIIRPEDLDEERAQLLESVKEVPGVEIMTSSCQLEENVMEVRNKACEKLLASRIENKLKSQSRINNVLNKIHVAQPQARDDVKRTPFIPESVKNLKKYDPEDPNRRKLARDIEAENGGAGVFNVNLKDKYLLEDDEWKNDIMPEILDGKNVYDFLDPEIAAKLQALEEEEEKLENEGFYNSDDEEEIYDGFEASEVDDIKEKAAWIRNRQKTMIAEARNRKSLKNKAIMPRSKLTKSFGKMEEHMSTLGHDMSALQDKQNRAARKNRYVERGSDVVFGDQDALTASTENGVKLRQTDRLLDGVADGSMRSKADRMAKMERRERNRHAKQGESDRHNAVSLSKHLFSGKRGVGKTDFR

B1: Drg1 (diazaborine resistance gene 1), wild type, purified (enzyme, S. cerevisiae)
chain: T1 sequence with Q346E
notes: Drg1 (AFG2), hexameric type-II AAA-ATPase of S. cerevisiae, wild type; Hexamer in the cryo-EM maps; also called DRG1 (AFG2); AAA-ATPase Drg1; source: overexpressed in yeast as GST fusion (CuSO4-induced), purified on GSH-agarose, eluted by Prescission protease cleavage
B2: GST-Arx1 (natural protein, S. cerevisiae)
chain: MALAISHEDTQILLKDKNILQESVLNKYRTAGQIAQTALKYVTSLINDSYHSKTTQRQLTVPELCLLTDSFILTRLEQYYKNKVNERGIAIPTTIDIDQISGGWCPEIDDTQNLLNWNKGKDSTFASSVTGTLRPGDLVKITLGVHIDGYTSEVSHTMVIYPVDETKPILQPTGPLLGGKADAVAAAHIAMETVVALLACALTPEKLPASLGGTSSGITGQLIRTIVDTIARSYNCGVVPGSRVRRIRRFLAGQNEGIVAEREYKGVVWTESHQEADLLSNTDAKDLTVVDRGQSTPFTNVSAIPSDDFVVQSGEVYLIDLKMASLEHCTKKGLVTLETVDSYTGKSHKAGELIARPGAYVRDFAQTHILKLKTSRQLLTKIDKQGVYPFKLSHLSSNFPFVHENEEELQSLKKDLKSFRLGMSEISNNYLCVESPIQIARWVPWDHILKATNPNGNLSYDATSTLTLPGHELPLPKLGVSAIKLKSLMNSTKESISLPVARECNTIVLCDSSVSTTDRPELLRLTGGSKTCQPSWIHSQHELNPQDSIVQGIFQLATLAKDKRFGLLLKETQPMKQKSVETSNGGVEETMKM
notes: Arx1 of S. cerevisiae; not shown: GST, N-terminal, kept
B3: Mrt4 on the pre-60S particle (natural protein, UniProt P33201 1-236, looked up)
chain: MPRSKRSKLVTLAQTDKKGRENKERIFDEVREALDTYRYVWVLHLDDVRTPVLQEIRTSWAGSKLIMGKRKVLQKALGEKREEEYKENLYQLSKLCSGVTGLLFTDEDVNTVKEYFKSYVRSDYSRPNTKAPLTFTIPEGIVYSRGGQIPAEEDVPMIHSLEPTMRNKFEIPTKIKAGKITIDSPYLVCTEGEKLDVRQALILKQFGIAASEFKVKVSAYYDNDSSTVESTNINME
notes: Mrt4 of S. cerevisiae; source: endogenous, on pre-60S particles purified via Bud20-TAP from S. cerevisiae
B4: Rlp24 (ribosomal-like protein 24) on the pre-60S particle (natural protein)
chain: not shown
notes: Ribosomal-like protein 24 (Rlp24) of S. cerevisiae

Tests used:
[1] = target: the molecule itself; experiment: cryo-EM structure; purified Drg1 (1.75 mg/ml, 12 µM) mixed 1:1 with 200 nM export-competent Bud20-TAP pre-60S particles, 2 mM ATPγS, 10 minutes; particle-bound Drg1 and free Drg1 hexamers picked from the same dataset
[2] = target: export-competent pre-60S particle purified via Bud20-TAP (S. cerevisiae (endogenous in the yeast …, UniProt Q08004 1-166; Q07915 1-199; Q03862 1-593; Q02892 1-647; P38861 1-518; P33201 …, Partial protein list of a heterogeneous ~2.1 MDa endogenous particle: members named in the text plus L2-A, L3 and L4-A from the PDB 7Z34 candidate entities. Tif6 is not named in the text and is inferr); experiment: SPR; Biacore X100; pre-60S particles captured through the Protein A moiety of Bud20-TAP on IgG immobilized on a CM3 chip; 25-150 nM Drg1 injected with 1 mM ATPγS; sigmoidal dose-response with variable slope on normalized RU; conditions: both partners purified
[3] = target: B1; experiment: pull-down; GST-tagged bait on GSH-agarose beads; 80 µg Drg1 in 120 µl binding buffer (20 mM HEPES-KOH, 150 mM potassium acetate, 5 mM magnesium acetate, 0.1% Tween-20, 1 mM DTT, pH 6.8); 1 mM ATP or ATPγS or no nucleotide; 60 minutes, room temperature; conditions: both partners purified
[4] = target: T1, Drg1EQ1 (E346Q), D1 Walker B variant, …; experiment: as above; conditions: both partners purified
[5] = target: T2, Nsa2 on the pre-60S particle; experiment: cryo-EM structure; purified Drg1 (1.75 mg/ml, 12 µM) mixed 1:1 with 200 nM export-competent Bud20-TAP pre-60S particles, 2 mM ATPγS, 10 minutes; particle-bound Drg1 and free Drg1 hexamers picked from the same dataset; conditions: both partners purified
[6] = target: T3, Nog1 on the pre-60S particle; experiment: as above; conditions: both partners purified

Binder: B1
- stoichiometry N [1]: 6
- EC50 [2]: 46 nM

Binder: B2
- binding result [3]: binds
- binding result [4]: binds

Binder: B3
- binding result [5]: binds

Binder: B4
- binding result [6]: binds
